Values quoted from earlier work, collected in article PMC7955094.

Biological target: His19 (UniProt position 19, ILSALHFMAWT)
Settings: membrane-bound BM2 tetramer, wild type

Substance: Influenza B virus M2 protein (BM2) proton channel (Influenza B virus (this article's own samples use strain B/Maryland/1/2001; the strain of the quoted pKa study is not stated))
- pKa: 5.1
